{"source": "paper PMC8508666", "key": {"[1]": {"molecular_target": "Sec61α, N-terminally tagged with LgBiT (Oplophorus gracilirostris | not stated)", "test": "split reporter (BiFC, NanoBiT); bimolecular luminescence complementation in living HeLa cells, 96-well plate, 24 h after co-transfection of one LgBiT and one SmBiT fusion plasmid (50 ng each); furimazine added, signal 4 min later; RLU normalised to the LgBiT fusion plus Halo-CS set to 1; forskolin (15 µM) lowered the rPKA-cPKA signal; digitonin plus trypsin eliminated the signals"}, "[2]": {"molecular_target": "Sec61β, C-terminally tagged with LgBiT (not stated | Oplophorus gracilirostris)", "test": "split reporter (BiFC, NanoBiT); bimolecular luminescence complementation in living HeLa cells, 96-well plate, 24 h after co-transfection of one LgBiT and one SmBiT fusion plasmid (50 ng each); furimazine added, signal 4 min later; RLU normalised to the LgBiT fusion plus Halo-CS set to 1; forskolin (15 µM) lowered the rPKA-cPKA signal; digitonin plus trypsin eliminated the signals"}, "[3]": {"molecular_target": "regulatory subunit of protein kinase A, C-terminally tagged with LgBiT (not stated | Oplophorus gracilirostris)", "test": "split reporter (BiFC, NanoBiT); bimolecular luminescence complementation in living HeLa cells, 96-well plate, 24 h after co-transfection of one LgBiT and one SmBiT fusion plasmid (50 ng each); furimazine added, signal 4 min later; RLU normalised to the LgBiT fusion plus Halo-CS set to 1; forskolin (15 µM) lowered the rPKA-cPKA signal; digitonin plus trypsin eliminated the signals"}, "[4]": {"molecular_target": "Sec61β, C-terminally tagged with LgBiT (not stated | Oplophorus gracilirostris)", "test": "split reporter (BiFC, NanoBiT); synthetic peptide complementation: HeLa cells expressing a LgBiT fusion, furimazine, then 0.002% digitonin, then synthetic peptide (scrambled, actin, SmBiT 1-100 µM; HaBiT up to 100 nM); signal 4 min after the peptide; RLU normalised to the scrambled peptide set to 1"}, "[5]": {"molecular_target": "regulatory subunit of protein kinase A, C-terminally tagged with LgBiT (not stated | Oplophorus gracilirostris)", "test": "split reporter (BiFC, NanoBiT); synthetic peptide complementation: HeLa cells expressing a LgBiT fusion, furimazine, then 0.002% digitonin, then synthetic peptide (scrambled, actin, SmBiT 1-100 µM; HaBiT up to 100 nM); signal 4 min after the peptide; RLU normalised to the scrambled peptide set to 1"}, "[6]": {"molecular_target": "TRAPα, C-terminally tagged with LgBiT (not stated | Oplophorus gracilirostris)", "test": "split reporter (BiFC, NanoBiT); synthetic peptide complementation: HeLa cells expressing a LgBiT fusion, furimazine, then 0.002% digitonin, then synthetic peptide (scrambled, actin, SmBiT 1-100 µM; HaBiT up to 100 nM); signal 4 min after the peptide; RLU normalised to the scrambled peptide set to 1"}, "[7]": {"molecular_target": "Sec61α, N-terminally tagged with LgBiT (Oplophorus gracilirostris | not stated)", "test": "split reporter (BiFC, NanoBiT); synthetic peptide complementation: HeLa cells expressing a LgBiT fusion, furimazine, then 0.002% digitonin, then synthetic peptide (scrambled, actin, SmBiT 1-100 µM; HaBiT up to 100 nM); signal 4 min after the peptide; RLU normalised to the scrambled peptide set to 1"}, "[8]": {"molecular_target": "Sec61α, C-terminally tagged with LgBiT (not stated | Oplophorus gracilirostris)", "test": "split reporter (BiFC, NanoBiT); synthetic peptide complementation: HeLa cells expressing a LgBiT fusion, furimazine, then 0.002% digitonin, then synthetic peptide (scrambled, actin, SmBiT 1-100 µM; HaBiT up to 100 nM); signal 4 min after the peptide; RLU normalised to the scrambled peptide set to 1"}, "[9]": {"molecular_target": "TRAPβ, C-terminally tagged with LgBiT (not stated | Oplophorus gracilirostris)", "test": "split reporter (BiFC, NanoBiT); synthetic peptide complementation: HeLa cells expressing a LgBiT fusion, furimazine, then 0.002% digitonin, then synthetic peptide (scrambled, actin, SmBiT 1-100 µM; HaBiT up to 100 nM); signal 4 min after the peptide; RLU normalised to the scrambled peptide set to 1"}, "[10]": {"molecular_target": "Sec61β, C-terminally tagged with LgBiT (not stated | Oplophorus gracilirostris)", "test": "split reporter (BiFC, NanoBiT); synthetic peptide complementation: HeLa cells expressing a LgBiT fusion, furimazine, then 0.002% digitonin, then synthetic peptide (scrambled, actin, SmBiT 1-100 µM; HaBiT up to 100 nM); signal 4 min after the peptide; RLU normalised to the scrambled peptide set to 1", "remark": "listed apart in the source"}, "[11]": {"molecular_target": "TRAPα, C-terminally tagged with LgBiT (not stated | Oplophorus gracilirostris)", "test": "split reporter (BiFC, NanoBiT); synthetic peptide complementation: HeLa cells expressing a LgBiT fusion, furimazine, then 0.002% digitonin, then synthetic peptide (scrambled, actin, SmBiT 1-100 µM; HaBiT up to 100 nM); signal 4 min after the peptide; RLU normalised to the scrambled peptide set to 1", "remark": "listed apart in the source"}, "[12]": {"molecular_target": "Sec61α, N-terminally tagged with LgBiT (Oplophorus gracilirostris | not stated)", "test": "split reporter (BiFC, NanoBiT); synthetic peptide complementation: HeLa cells expressing a LgBiT fusion, furimazine, then 0.002% digitonin, then synthetic peptide (scrambled, actin, SmBiT 1-100 µM; HaBiT up to 100 nM); signal 4 min after the peptide; RLU normalised to the scrambled peptide set to 1", "remark": "listed apart in the source"}, "[13]": {"molecular_target": "Sec61α, C-terminally tagged with LgBiT (not stated | Oplophorus gracilirostris)", "test": "split reporter (BiFC, NanoBiT); synthetic peptide complementation: HeLa cells expressing a LgBiT fusion, furimazine, then 0.002% digitonin, then synthetic peptide (scrambled, actin, SmBiT 1-100 µM; HaBiT up to 100 nM); signal 4 min after the peptide; RLU normalised to the scrambled peptide set to 1", "remark": "listed apart in the source"}, "[14]": {"molecular_target": "TRAPβ, C-terminally tagged with LgBiT (not stated | Oplophorus gracilirostris)", "test": "split reporter (BiFC, NanoBiT); synthetic peptide complementation: HeLa cells expressing a LgBiT fusion, furimazine, then 0.002% digitonin, then synthetic peptide (scrambled, actin, SmBiT 1-100 µM; HaBiT up to 100 nM); signal 4 min after the peptide; RLU normalised to the scrambled peptide set to 1", "remark": "listed apart in the source"}, "[15]": {"molecular_target": "TRAPα, C-terminally tagged with LgBiT (not stated | Oplophorus gracilirostris)", "test": "split reporter (BiFC, NanoBiT); bimolecular luminescence complementation in living HeLa cells, 96-well plate, 24 h after co-transfection of one LgBiT and one SmBiT fusion plasmid (50 ng each); furimazine added, signal 4 min later; RLU normalised to the LgBiT fusion plus Halo-CS set to 1; forskolin (15 µM) lowered the rPKA-cPKA signal; digitonin plus trypsin eliminated the signals"}}, "note": "Like-named read-outs stand apart in the source and are kept apart here."}
{"molecule": "Sec61β, N-terminally tagged with SmBiT (from UniProt P60468 1-96) (natural protein)", "values": [{"measurement": "relative luminescence (RLU, Halo-CS control pair = 1)", "setting": "[1]", "value": 141, "unit": "RLU"}]}
{"molecule": "Sec63, N-terminally tagged with SmBiT (from UniProt Q9UGP8 1-760) (natural protein)", "values": [{"measurement": "relative luminescence (RLU, Halo-CS control pair = 1)", "setting": "[2]", "value": 202, "unit": "RLU"}]}
{"molecule": "catalytic subunit of protein kinase A, C-terminally tagged with SmBiT (from UniProt P17612 1-351) (enzyme)", "values": [{"measurement": "relative luminescence (RLU, Halo-CS control pair = 1)", "setting": "[3]", "value": 613, "unit": "RLU"}]}
{"molecule": "synthetic HaBiT peptide (high affinity variant of SmBiT)", "values": [{"measurement": "luminescence relative to the scrambled peptide", "setting": "[4]", "value": "> 50", "unit": "fold"}, {"measurement": "fold activity over the SmBiT peptide", "setting": "[5]", "value": 10000, "unit": "fold"}, {"measurement": "luminescence relative to the scrambled peptide", "setting": "[6]", "value": "> 50", "unit": "fold"}, {"measurement": "luminescence relative to the scrambled peptide", "setting": "[7]", "value": "> 50", "unit": "fold"}, {"measurement": "luminescence relative to the scrambled peptide", "setting": "[8]", "value": 15, "unit": "RLU"}, {"measurement": "luminescence relative to the scrambled peptide", "setting": "[9]", "value": "> 50", "unit": "fold"}]}
{"molecule": "TRAPα, C-terminally tagged with SmBiT (natural protein) VLFRGGPRGLLAVAQDLTEDEETVEDSIIEDEDDEAEVEEDEPTDLVEDKEEEDVSGEPEASPSADTTILFVKGEDFPANNIVKFLVGFTNKGTEDFIVESLDASFRYPQDYQFYIQNFTALPLNTVVPPQRQATFEYSFIPAEPMGGRPFGLVINLNYKDLNGNVFQDAVFNQTVTVIEREDGLDGETIFMYMFLAGLGLLVIVGLHQLLESRKRKRPIQKVEMGTSSQNDVDMSWIPQETLNQINKASPRRLPRKRAQKRSVGSDE", "values": [{"measurement": "relative luminescence (RLU, Halo-CS control pair = 1)", "setting": "[1]", "value": 62, "unit": "RLU"}]}
{"molecule": "CVTGYRLFEEIL", "note": "[synthetic SmBiT peptide (11 + 1 aa)]", "values": [{"measurement": "luminescence relative to the scrambled peptide", "setting": "[10]", "value": "> 10", "unit": "fold"}, {"measurement": "luminescence relative to the scrambled peptide", "setting": "[11]", "value": "> 10", "unit": "fold"}, {"measurement": "luminescence relative to the scrambled peptide", "setting": "[12]", "value": "> 10", "unit": "fold"}, {"measurement": "luminescence relative to the scrambled peptide", "setting": "[13]", "value": 2, "unit": "RLU"}, {"measurement": "luminescence relative to the scrambled peptide", "setting": "[14]", "value": "> 10", "unit": "fold"}]}
{"molecule": "TRAPβ, C-terminally tagged with SmBiT (natural protein) EEGARLLASKSLLNRYAVEGRDLTLQYNIYNVGSSAALDVELSDDSFPPEDFGIVSGMLNVKWDRIAPASNVSHTVVLRPLKAGYFNFTSATITYLAQEDGPVVIGSTSAPGQGGILAQREFDRRFSPHFLDWAAFGVMTLPSIGIPLLLWYSSKRKYDTPKTKKN", "values": [{"measurement": "relative luminescence (RLU, Halo-CS control pair = 1)", "setting": "[15]", "value": 91, "unit": "RLU"}]}
